Target: tau 2N4R (tau-441) wild type (human, UniProt P10636-8 1-441)
Experiment: EMSA

B1: 24-bp dsDNA (dsDNA)
DNA 1: TCGACACGGAAATGTTGAATACTA
DNA 2: TAGTATTCAACATTTCCGTGTCGA
  binding result: binds
